Publication PMC7783346

Test system: His6-KfrA G38A (plasmid RA3 (IncU; Aeromonas hydrophila in Fig S1/S3))
Experiment: EMSA
Conditions: EMSA: 50 mM Tris-HCl pH 8.0, 10 mM MgCl2, 50 mM NaCl, 37 C, 30 min, 10 nM EcoRI-NdeI-digested plasmid DNA (vector fragment as internal competitor), 20 ul …

WT OK (kfrAp), EcoRI-NdeI fragment of pESB2.68
K half: 260 nM
